Source: patent publication EP4034238B1 (Centro Nacional de Investigaciones Cardiovasculares Carlos …, dated 2025)

Columns and labels:
[1] = molecular target: T1, ALDH4A1-FLAG protein (mouse ALDH4A1, C-Flag tag) (mouse, UniProt Q8CHT0 24-562, limits assumed); experiment: ELISA screen for ALDH4A1 reactivity (mark in Table 1)
T1 construct: Purified on anti-FLAG M2 gel and coated at 5 ug/ml in the ELISAs; used as lysate of transfected HEK293T cells in the IP; also called murine ALDH4A1-FLAG; not shown: C-terminal FLAG tag
T1 sequence (looked up): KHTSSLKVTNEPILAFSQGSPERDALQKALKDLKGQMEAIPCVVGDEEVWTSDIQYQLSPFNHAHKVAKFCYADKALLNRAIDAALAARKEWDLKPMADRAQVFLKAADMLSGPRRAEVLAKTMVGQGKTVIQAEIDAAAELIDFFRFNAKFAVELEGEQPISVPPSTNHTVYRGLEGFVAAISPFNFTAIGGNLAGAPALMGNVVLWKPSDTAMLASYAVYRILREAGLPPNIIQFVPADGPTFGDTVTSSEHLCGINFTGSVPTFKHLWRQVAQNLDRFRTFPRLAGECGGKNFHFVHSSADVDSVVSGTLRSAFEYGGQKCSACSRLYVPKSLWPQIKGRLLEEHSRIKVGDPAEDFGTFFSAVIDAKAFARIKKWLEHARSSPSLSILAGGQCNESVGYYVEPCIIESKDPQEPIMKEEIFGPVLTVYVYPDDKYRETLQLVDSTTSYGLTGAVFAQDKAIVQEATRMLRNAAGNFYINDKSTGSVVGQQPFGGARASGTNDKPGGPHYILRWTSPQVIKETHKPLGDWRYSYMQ

[2] = molecular target: T2, Aldehyde Dehydrogenase 4 Family Member A1 (ALDH4A1), endogenous mouse protein from aorta lysate (mouse, UniProt Q8CHT0 24-562); experiment: deep proteomics analysis (IP + mass spectrometry)
T2 construct: Native protein precipitated from mouse aorta lysates; also called ALDH4A1 mitochondrial protein
T2 sequence (looked up): T1 sequence (looked up)

binding result [1]: binds
binding result [2]: binds
B1: A12 antibody (antibody, human IgG1, V domains shown)
VH: EVQLVESGGDLVKPGGSLKLSCAASGFTFSSYGMSWVRQTPDKRLEWVATISSGGSYTYYPDSVKGRFTISRDNAKNTLYLQMSSLKSEDTAMYYCARPHVVTTPGWYFDVWGTGTTVTVSS
VL: DIVMTQSPATLSVTPGDRVSLSCRASQSISDYLHWYQQKSHESPRLLIKYASQSISGIPSRFSGSGSGSDFTLSINSVEPEDVGVYYCQNGHSFPLTFGAGTKLELK
notes: also called huA12-IgG1
